Data taken from PMC11222466.

Assays:
[1] = molecular target: PHB-CC_(ΔEA4), PHB-CC variant with A286E287A288 deleted (Staphylococcus aureus); assay: SEC; purified FloA variants at ~60 μM, Superdex 200 Increase 10/300 GL, 300 mM NaCl, 50 mM Tris-HCl pH 8.0, 10% glycerol, 0.02% DDM
[2] = molecular target: Purified OBL domain of NfeD (Staphylococcus aureus); assay: SEC; purified NfeD variants at ~60 μM, Superdex 75 Increase 10/300 GL, 300 mM NaCl, 50 mM Tris-HCl pH 8.0, 10% glycerol, 0.02% DDM
[3] = molecular target: Purified PHB domain of FloA (Staphylococcus aureus); assay: SEC; purified FloA variants at ~60 μM, Superdex 200 Increase 10/300 GL, 300 mM NaCl, 50 mM Tris-HCl pH 8.0, 10% glycerol, 0.02% DDM
[4] = molecular target: Purified native NfeD (Staphylococcus aureus); assay: SEC; purified NfeD variants at ~60 μM, Superdex 75 Increase 10/300 GL, 300 mM NaCl, 50 mM Tris-HCl pH 8.0, 10% glycerol, 0.02% DDM

## PHB-CC_(ΔEA4), PHB-CC variant with A286E287A288 deleted (domain or fragment)
[1]
  stoichiometry N: 2

## Purified OBL domain of NfeD (domain or fragment)
[2]
  stoichiometry N: 2

## Purified PHB domain of FloA (domain or fragment)
[3]
  stoichiometry N: 2

## Purified native NfeD (natural protein)
[4]
  stoichiometry N: 2
